# Data published in article PMC4995436, “Characterization of a novel low-temperature-active, alkaline and sucrose-tolerant invertase” (Scientific Reports, 2016).
# B1: rInvHJ14 (InvHJ14) (Bacillus sp. HJ14) (protein)
# chain: MTTTDAALRQKIADRIRNYEHLVKKDVYRQHFHLMPPVGLLNDPNGLIQWKGIYHVFYQWQPFKTGHGAKFWGHYTSTDLVNWQHEEAALAPSDWFDQNGCYSGSAFIDDGQMHVMYTGNVRDEQGNRETYQCLAVSEDGIHFQKKGVVATLPEGFTAHFRDPKVWKRNGQWYMVLGAQSLDLKGHLVLFTSDTLDNWTFQGTIAGSGKNGLDNFGYMWECPDLFELDGRDVLIVSPQGLEPDGLKYHNTHQSGYFVGTLDDHSYQYTHGAFEELDRGFDFYAQQTFLDESGRRLLIGWMGVPDQGEEHHPTISYQWIHCLTIPRELRLDEDGHLIQKPVSELQSMRTNEQEHVFHIKRSVHSIPVEDITSAEVFIDQIDTQKGFECCIRAAARIIYDKEEGKLTLERDRFEDRSKEVREAVIEELHDLHIFIDSSSIEIFVNGGREVFTARYFPSPGNKSISISGRNETKLKLKAWHLQREADQ
# notes: pEASY-E2 vector, E. coli BL21 (DE3), Ni-NTA purified, approximately 58 kDa on SDS-PAGE
# Substrate: OC[C@H]1O[C@@](CO)(O[C@H]2O[C@H](CO)[C@@H](O)[C@H](O)[C@H]2O)[C@@H](O)[C@@H]1O
# Assay: initial-rate kinetics, DNS reducing sugar assay, Michaelis-Menten fit
# Type: biochemical, Bacillus sp. HJ14
# Details: 30 °C, McIlvaine buffer pH 8.0, 1.5-36.5 mM sucrose
# Text: initial-rate kinetics, DNS reducing sugar assay, Michaelis-Menten fit on rInvHJ14 (InvHJ14)
protein,measurement,value
B1,Km,62.9 mM
same,Vmax,772 µmol/min/mg
same,kcat,746 s⁻¹
same,kcat/Km,11900 M⁻¹ s⁻¹
